From publication PMC8309178, “Two Novel PET Radiopharmaceuticals for Endothelial Vascular Cell Adhesion Molecule-1 (VCAM-1) Targeting” (Pharmaceutics, 2021)
No end group written: not given here. *: point of attachment. maleimido‑mono‑amide‑DOTA = O=C(O)CN1CCN(CC(=O)O)CCN(CC(=O)NCCN2C(=O)CC(*)C2=O)CCN(CC(=O)O)CC1; NAM = N-norbiotinyl-β-maleimidopropionylamide, biotin derivative conjugated to Cys thiol

Experiments:
[1] = target: T1, VCAM-1 expressed on HUVEC (Homo sapiens, UniProt P19320); test: In vitro test of 68Ga-MacroP on HUVEC (LigandTracer radioactive uptake); type: cell-based; set-up: endogenous in cells; host or cells: primary HUVEC stimulated with 10 ng/mL TNF-alpha for 4 h; details: HUVEC activated with 10 ng/mL TNF-α for 4 h vs unstimulated HUVEC; 5 MBq 68Ga-MacroP in 3 mL saline; LigandTracer White
T1 sequence (P19320 25-739): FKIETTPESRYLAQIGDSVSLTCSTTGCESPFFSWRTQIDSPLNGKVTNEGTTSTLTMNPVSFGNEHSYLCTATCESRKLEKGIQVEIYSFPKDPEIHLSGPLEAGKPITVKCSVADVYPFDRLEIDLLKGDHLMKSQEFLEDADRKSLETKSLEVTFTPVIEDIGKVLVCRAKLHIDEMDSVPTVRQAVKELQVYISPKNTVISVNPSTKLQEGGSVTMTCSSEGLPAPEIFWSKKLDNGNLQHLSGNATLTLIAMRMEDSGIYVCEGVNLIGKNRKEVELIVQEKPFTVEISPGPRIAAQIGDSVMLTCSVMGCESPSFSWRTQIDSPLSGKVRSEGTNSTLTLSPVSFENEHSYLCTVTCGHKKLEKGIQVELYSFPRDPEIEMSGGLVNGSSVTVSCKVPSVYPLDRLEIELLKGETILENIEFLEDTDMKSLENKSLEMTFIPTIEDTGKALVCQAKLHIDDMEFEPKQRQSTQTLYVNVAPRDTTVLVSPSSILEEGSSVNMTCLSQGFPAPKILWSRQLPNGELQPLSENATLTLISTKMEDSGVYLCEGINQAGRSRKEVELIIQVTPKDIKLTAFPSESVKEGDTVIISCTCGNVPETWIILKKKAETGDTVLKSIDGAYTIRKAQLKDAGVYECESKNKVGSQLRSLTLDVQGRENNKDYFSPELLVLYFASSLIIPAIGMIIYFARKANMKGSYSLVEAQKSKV
From the text: (§1) Human Umbilical Vein Endothelial Cells (HUVEC) were obtained from human umbilical cords collected from full-term women immediately after cesarean section at the Gynecology and Obstetrics Department of International Evangelical Hospital in Genoa (Italy), after patients’ informed consent and the approval (register number 2/2010-19, February, 2010) by the Institutional Ethical Committee. Each cord vein was individually processed for obtaining endothelial cells through mechanical dissociation of the tissue and collagenase digestion. Cells were maintained in culture medium EndoGRO-LS Complete Culture Media Kit seeded on attachment factor-coated plates. For labeling experiments, 8 × 10^5 cells were plated on Petri dishes in EndoGRO Basal Medium (SCME-BM) and allowed to attach overnight prior stimulation with 10 ng/mL of TNF-alpha (TNF-α) for 4 h. Cells without TNF-α treatment were used as control (Figures S19 and S20).
The binding assay of ^68Ga-MacroP with VCAM-1 expressed on HUVEC was monitored using LigandTracer® White (Ridgeview Instruments AB, Uppsala, Sweden) according to our previously validated procedure. Briefly, the tool consists of a beta-emission detector and a rotating platform harboring a standard Petri dish. […] The binding of radioactivity to cell-containing areas and reference areas was recorded. […]

avidin = avidin (Gallus gallus, UniProt P02701); test: NAMP-avidin binding (ultrafiltration, RP-HPLC, capillary electrophoresis); details: approx. 0.17 mM NAMP with avidin 2.5 μg/μL, 37 °C, 2 h; 30 kD cut-off ultrafiltration; RP-HPLC of ultrafiltrate, capillary electrophoresis of retentate
avidin, sequence (P02701 25-152, species assumed): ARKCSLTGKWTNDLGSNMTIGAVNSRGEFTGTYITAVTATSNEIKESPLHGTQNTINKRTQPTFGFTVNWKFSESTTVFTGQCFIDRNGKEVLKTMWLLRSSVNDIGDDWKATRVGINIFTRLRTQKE
Description: Avidin was dissolved in ultrapure water (2.5 μg/μL). This solution (100 μL) was mixed with a NAMP solution (approx. 0.17 mM) and heated at 37 °C under 400 rpm orbital shaking for 2 h. The mixture was placed in an ultrafiltration system with a regenerated cellulose membrane (30 kD cut-off), and washed with 250 μL of ultrapure water at 1400 g for 20 min at 15 °C. By inverted spinning at 1000 g for 3 min, the retentate was recovered and analyzed by capillary electrophoresis (Agilent Technologies 7100 Capillary Electrophoresis, Santa Clara, CA, USA). Separations were performed in a bare fused-silica capillary 50 μm (i.d.) × 64.5 cm (L) × 50 cm (L), activated with 1 M aqueous NaOH, 0.1 M aqueous NaOH and washed with ultrapure water. The conditioning and the run were carried out with 50 mM sodium phosphate buffer (pH 2.5), used also for 120 s preconditioning before injection. The gradient voltage was from 0 to 30 kV in 0.2 min.

[2] = target: T1, VCAM-1 expressed on HUVEC; test: In vitro test of NAMP-avidin-68Ga-BisDOTA on HUVEC (three-step pretargeting, LigandTracer); type: cell-based; set-up: endogenous in cells; host or cells: primary HUVEC stimulated with TNF-alpha
From the text: as §1, with “Cells without TNF-α treatment were used as control (Figures S19 and S20).” left out
After removing the culture medium containing TNF-α, stimulated HUVEC were incubated at 37 °C with 4 nmol of NAMP for 20 min and afterwards with 3.5 nmol of NeutrAvidin™ for 10 min. After washing and replacing the culture medium with 3 mL of the saline solution containing 5MBq of ^68Ga-BisDOTA (specific activity 37.0 MBq/nmol), the binding assay of ^68Ga-BisDOTA with the NAMP-avidin complex, bound to the VCAM-1 expressed on HUVEC, was monitored using the same procedure described in Section 2.3.5.

[3] = deglycosylated form of avidin; cited from earlier work
Description: After radiolabeling with ^68Ga, both MacroP and NAMP were tested on human endothelial cells. Quantitative PCR and Fluorescence-Activated Cell Sorting (FACS) analysis were performed prior to the experiments, to assess the expression of VCAM-1 on HUVEC. To avoid excessive stress for the cells, they were activated with TNF-α for 4 h only. In the three-step pretargeting test, a commercially available deglycosylated form of avidin (NeutrAvidin™) was employed because it is characterized by reduced non-specific binding, low isoelectric point (~6.3) and low production cost with respect to ...

MacroP: reaction product of maleimido-mono-amide-DOTA with the cysteine thiol of the VCAM-1-binding peptide VHPKQHRGGSKGC (VHPKQHRGGSKGC(maleimido‑mono‑amide‑DOTA))
radiosignal uptake of activated cells compared to control cells [1]: 4 fold

NAMP: biotin derivative: NAM (N-norbiotinyl-β-maleimidopropionylamide) conjugated to the cysteine thiol of VHPKQHRGGSKGC, for three-step pretargeting (VHPKQHRGGSKGC(NAM))
avidin binding: unbound NAMP in the ultrafiltrate (avidin): no unbound NAMP could be detected
radioactive uptake of activated cells compared to the controls ([2]; HUVEC activated with 10 ng/mL TNF-α for 4 h vs unstimulated, 4 nmol NAMP 20 min at 37 °C, 3.5 nmol NeutrAvidin 10 min, then 5 MBq 68Ga-BisDOTA in 3 mL saline): 12 fold
uptake of radioactivity, activated cells versus control cells (in words) ([2]; TNF-α activated HUVEC vs control, NAMP, then NeutrAvidin and 68Ga-BisDOTA, p < 0.05): evidently higher uptake of radioactivity compared to the control cells

NeutrAvidin™: commercially available deglycosylated form of avidin
isoelectric point [3]: ~ 6.3
